Legend:
[1] = substrate: CC(=O)SCCNC(=O)CCNC(=O)[C@H](O)C(C)(C)COP(=O)(O)OP(=O)(O)OC[C@H]1O[C@@H](n2cnc3c(N)ncnc32)[C@H](O)[C@@H]1OP(=O)(O)O; assay: purified protein; type: biochemical, Saccharopolyspora erythraea; settings: 3 mM ATP, 5 mM MgCl2, 50 mM NaH14CO3, 100 mM Hepes pH 7.5, 30 °C
[2] = substrate: CCC(=O)SCCNC(=O)CCNC(=O)[C@H](O)C(C)(C)COP(=O)(O)OP(=O)(O)OC[C@H]1O[C@@H](n2cnc3c(N)ncnc32)[C@H](O)[C@@H]1OP(=O)(O)O; assay: purified protein; type: biochemical, Saccharopolyspora erythraea; settings: 3 mM ATP, 5 mM MgCl2, 50 mM NaH14CO3, 100 mM Hepes pH 7.5, 30 °C
[3] = molecular target: the molecule itself; assay: SEC; Superdex 200 10/300 GL in 50 mM Hepes pH 7.5, 150 mM NaCl, 20% glycerol; calibrated with molecular mass standards; two peaks, dimer (404 kDa) and monomer (186.9 kDa)

B1: SACE_4237 (Saccharopolyspora erythraea NRRL 2338) (protein)
chain: MFSRVAIVNRGEAAMRLVHAVRELAAETGERIETVALHTDVDRTATFVREADLRYDLGPASARPYLDLGVLERALVESGADAAWVGWGFVAEDPAFAELCEKIGVTFIGPSAEAMRRLGDKIGAKLLAEEVGVPVAPWSRGEVSDLDGARRAADEIGYPLMLKATAGGGGRGIRVINSEQELTEAYERTRMEAERAFGNGAVFLERLVTGARHVEVQVIADGQGTAWALGVRDCSVQRRNQKIIEESASPVLTAEQSRELKAAAERLARAVEYRGAGTVEFLYHPGEELFAFLEVNTRLQVEHPITEATTGVDLVKAQLHVASGGRLEGEPPAELGHAVEARLNAEDPDRDFAPSPGRIVRLSLPAGPGIRVDTGVSEGDTIPADFDSMIAKIIAYGSDREQALGRLRRAMAQTTVIVAGGATNKSFVLDLLNRDEVVDGSADTGWIDRERAAGGLRSHQHSAIALAAAAVEAYEDAELAARQQFLSTAHGGRPQVRHETGRPLELKLRDESYRVLVARVGHQRYRIGIDTGSQQHTADVEIERFDSHTGQITVNGQRFRLVTDTHGPVHLVEVDGVTHRVSQDEGGVLRSPAPALVVATPVEIGEEVEAGAPVLVLESMKMETVLRAPFRARLRERMVAAGSQIETGAPLLRLEPVGDQEAAEEAEAATPVELALPVAPSARDAHERAARGLQDLRSVLLGFDVDPHDEQRVLDDYLAARAELVAAGQRPLDGEIELLQVFADLSELSRNRPAGEEAKADTRVHSPREYFHTYLQSLDVERAGLSETFQQRLLRVLGHYGVEGADRTPELEEAVFRIFLAQQRAASDAAVVTTLLGHWLTEVPPPGETRTAAGLVLEHLVAATQLRFPVVCDLARTVVFHWFAQPMLRRNRAEVYSVVRGHLRHLDAHPDAHDRAERIAEMVGTAEPLVRLLGQRIGREGTDPAPLLEVLTRRYYGNRALDGVRTTRVAGSTAVVAEYQDEHPRVVATAVDFAALPEAVRAIGELAADGDLVADIYLTWADQPEDSDAMAAELGEVLGAQGLPGQVGRITTTVAGRSGAVMHHHFTFEPASEGVAEQRLIRGLHPLIAERLQLRRWRDFDLTRLPSADEEVYLFRSVARENPSDERFVAMAQVRDLTPLRDDEGRLVALPAAEGVLTGCLDAIRKVQARVPARQRSSTNRIVIYVWPPVELTSEELRALGRRVLPTTAGAGLEEVLFLGRRRDRETGELREVAVRVGYEAGSEPRMSVGEPPTERIEPLNSYRQKVLRAAKRGTVYPYELTGMLAGGQGTFVEHDLDADGVLVPVDRPKGQNSAAIVAGVVTTPTERHPEGVTRVVLLGDPTKSLGALSEPECSRVIAALDLAERMRVPLEWFALSAGARISMDSGTENMDWVAAALKRIVHFTQDGGEINVVVAGINVGAQPYWNAEATMLMHTKGILVMTPDSAMVLTGKQSLDFSGGVSADDNFGIGGYDRVMGPNGQAQYWAPNLAAAREVLMSHYDHTYVVPGEEAPRQAATTDPRDRDICDYPHEFAGSDFTTVGEIFSATANPDRKKSFDIRTVMRALADQDHPVLERWAGMADADTAAVQDVHLGGHPVCLLGIESRPVPRHGFPPTDGPDTYTAGTLFPRSSKKAARAINAASGNRPLVVLANLSGFDGSPESMRKLQLEYGAEIGRAIVNFRGPIVFCVISRYHGGAFVVFSKALNPNMTVLAVEGSYASVIGGAPAAAVVFSGEVNDRTAKDQRVRDLEARLAEAGDADRTALTLELAETRRAVHAEKLGEVAAEFDRVHSVQRAVEVGSVDAIVRADELRPQIIEAIEKGMLPQ
notes: full-length gene, N-terminal His6 tag, E. coli BL21λ(DE3) with pCY216 (biotin ligase)
B1 was tested, and the Km [1] was 168 ± 1 µM, the Vmax [1] was 0.00043 µmol/min and the kcat [1] was 0.143 ± 0.004 s⁻¹. For the same protein, the kcat/Km [1] was 850 ± 30 M⁻¹ s⁻¹, the Km [2] was 98 ± 1 µM and the Vmax [2] was 0.00016 µmol/min. For the same protein, the kcat [2] was 0.052 ± 0.002 s⁻¹ and the kcat/Km [2] was 520 ± 40 M⁻¹ s⁻¹.

B2: SACE_4237 multidomain acyl-CoA carboxylase (enzyme, Saccharopolyspora erythraea, UniProt A4FHI1 1-1827, looked up)
chain: MFSRVAIVNRGEAAMRLVHAVRELAAETGERIETVALHTDVDRTATFVREADLRYDLGPASARPYLDLGVLERALVESGADAAWVGWGFVAEDPAFAELCEKIGVTFIGPSAEAMRRLGDKIGAKLLAEEVGVPVAPWSRGEVSDLDGARRAADEIGYPLMLKATAGGGGRGIRVINSEQELTEAYERTRMEAERAFGNGAVFLERLVTGARHVEVQVIADGQGTAWALGVRDCSVQRRNQKIIEESASPVLTAEQSRELKAAAERLARAVEYRGAGTVEFLYHPGEELFAFLEVNTRLQVEHPITEATTGVDLVKAQLHVASGGRLEGEPPAELGHAVEARLNAEDPDRDFAPSPGRIVRLSLPAGPGIRVDTGVSEGDTIPADFDSMIAKIIAYGSDREQALGRLRRAMAQTTVIVAGGATNKSFVLDLLNRDEVVDGSADTGWIDRERAAGGLRSHQHSAIALAAAAVEAYEDAELAARQQFLSTAHGGRPQVRHETGRPLELKLRDESYRVLVARVGHQRYRIGIDTGSQQHTADVEIERFDSHTGQITVNGQRFRLVTDTHGPVHLVEVDGVTHRVSQDEGGVLRSPAPALVVATPVEIGEEVEAGAPVLVLESMKMETVLRAPFRARLRERMVAAGSQIETGAPLLRLEPVGDQEAAEEAEAATPVELALPVAPSARDAHERAARGLQDLRSVLLGFDVDPHDEQRVLDDYLAARAELVAAGQRPLDGEIELLQVFADLSELSRNRPAGEEAKADTRVHSPREYFHTYLQSLDVERAGLSETFQQRLLRVLGHYGVEGADRTPELEEAVFRIFLAQQRAASDAAVVTTLLGHWLTEVPPPGETRTAAGLVLEHLVAATQLRFPVVCDLARTVVFHWFAQPMLRRNRAEVYSVVRGHLRHLDAHPDAHDRAERIAEMVGTAEPLVRLLGQRIGREGTDPAPLLEVLTRRYYGNRALDGVRTTRVAGSTAVVAEYQDEHPRVVATAVDFAALPEAVRAIGELAADGDLVADIYLTWADQPEDSDAMAAELGEVLGAQGLPGQVGRITTTVAGRSGAVMHHHFTFEPASEGVAEQRLIRGLHPLIAERLQLRRWRDFDLTRLPSADEEVYLFRSVARENPSDERFVAMAQVRDLTPLRDDEGRLVALPAAEGVLTGCLDAIRKVQARVPARQRSSTNRIVIYVWPPVELTSEELRALGRRVLPTTAGAGLEEVLFLGRRRDRETGELREVAVRVGYEAGSEPRMSVGEPPTERIEPLNSYRQKVLRAAKRGTVYPYELTGMLAGGQGTFVEHDLDADGVLVPVDRPKGQNSAAIVAGVVTTPTERHPEGVTRVVLLGDPTKSLGALSEPECSRVIAALDLAERMRVPLEWFALSAGARISMDSGTENMDWVAAALKRIVHFTQDGGEINVVVAGINVGAQPYWNAEATMLMHTKGILVMTPDSAMVLTGKQSLDFSGGVSADDNFGIGGYDRVMGPNGQAQYWAPNLAAAREVLMSHYDHTYVVPGEEAPRQAATTDPRDRDICDYPHEFAGSDFTTVGEIFSATANPDRKKSFDIRTVMRALADQDHPVLERWAGMADADTAAVQDVHLGGHPVCLLGIESRPVPRHGFPPTDGPDTYTAGTLFPRSSKKAARAINAASGNRPLVVLANLSGFDGSPESMRKLQLEYGAEIGRAIVNFRGPIVFCVISRYHGGAFVVFSKALNPNMTVLAVEGSYASVIGGAPAAAVVFSGEVNDRTAKDQRVRDLEARLAEAGDADRTALTLELAETRRAVHAEKLGEVAAEFDRVHSVQRAVEVGSVDAIVRADELRPQIIEAIEKGMLPQ
modifications: biotinylated (co-expressed biotin ligase from pCY216 to improve biotinylation; residue not stated)
notes: SACE_4237, multidomain acyl-CoA carboxylase (BC, BCCP, central region, CT) of Saccharopolyspora erythraea NRRL23338, about 200 kDa; gene amplified from chromosomal DNA with an NdeI site at the translational start codon and a SpeI site downstream of the stop codon; Eluted from size exclusion as a dimer (peak 1, 404 kDa) and a monomer (peak 2, 186.9 kDa); The row is of the protomer with itself; …
With B2 the “stoichiometry N” value [3] was 2.
